This data set is described as follows: label from the status in PepcDB records.
Consider “MKRKSLKSFIYVSALLVFLSGFVGVSLFVKSEVVEATTIGDDYPVKWKNLPLGGAIDDWRMYTRYCTSFVAYRLSTANNFELPSGFGNADRWGTEAMARGYKVDKNPKVGSVAWWTSTHVAWVAEVSGDNVKVEEYNYGFDGKYNTRWINKNSANGYIHFKDMPQTPVGWYNNGHYDYYYYADGTKAIGLTWVGTKRYNFDKNGAMYKNAWTNSDKYSYYSTSDGSLAVGLTWVGTKRYNFDKNGAMYKNAWTNSDKYSYYSTSDGSLAVGLTWVGTKRYNFDKNGAMYKNAWTNSDKYSYYSTSDGSLAVGHQQIGENKYIFDKNGALYKNMWVDLDGNRYYSKEDGALAIGEQIIDGITYMFDESGKLVNNLEHHHHHH”, for which the protein production entry was “not failed”.
As to “MKRKTIRILLISSGLILILLVGYRLYLEYQTDIQLFLNPKASKTQLLERIRSHGFSAALLLVFLTAIMCAVPGIPTSVIGVIAGLSFGPFSGTLINVLGNSMGNLVAIFLMHHIKFLDKKTETNHWVQSIRRMKHPKIGIMVGYMIPIIPSSVINFAADTMQLPLKNLIAAIFIGVIPSSILYACGGEALFHGYNKTAVLLIVSVLLFVGLVVIIEKDRKRFQKTVL”, the protein production entry is listed as “failed”.
As for “MKRLIGLVIVALVLLAACGSNNDKKVTIGVASNDTKAWEKVKELAKKDDIDVEIKHFSDYNLPNKALNDGDIDMNAFQHFAFLDQYKKAHKGTKISALSTTVLAPLGIYSDKIKDVKKVKDGAKVVIPNDVSNQARALKLLEAAGLIKLKKDFGLAGTVKDITSNPKHLKITAVDAQQTARALSDVDIAVINNGVATKAGKDPKNDPIFLEKSNSDAVKPYINIVAVNDKDLDNKTYAKIVELYHSKEAQKALQEDVKDGEKPVNLSKDEIKAIETSLAK”, the protein production entry was “not failed”.
The value for “MKRLILPIACGICTVTSDAQTDKQPHPNVIFIYADDLGYKDLSCTGSRFYETPHIDKLAREGVCFTQSYAACPVSSPSRAALLTGKYPARINLTDYIPGDRAYGPHKNQRLASLPFNLHLSKDEITMAEAFRQNGYSTFMAGKWHLAESAEYYPEQNGFDINIGGNNTGHPSKGYFSPYGNPQLKDGPEGEYLTDRLTDEVIRYISEPKEKPFFVYLSYYTVHLPLQAKAEKIAKYRRKLSRAVPADSSFVKKGETYHKLVQDIPAYAAMVESLDENIGRLLDTLHRSGLDERTIVVFTSDNGGMATSNTTRNIPTSNLPLRAGKGYLYEGGIKVPAIIRWSGHLKGRQVSDTPIIGTDYYPTLLDLCGLPLLPGQHVDGVSMKPVLQGGRLSRPSLFWHYPHYSGGLGGRPSAAIREGDYKLIEFFEDHHVELYNVIQDESEEKDLSQIYPEIADGLRKKLYLWYKEVGARMPVDNPHYVSPVKDSDSFENKLEHHHHHH” was “failed”; that for “MKRLSTLCLLAAGFFIPGQAHQARPTVLDSVYAPLKVATPPSDAYIGLSLLDNGEIRHYNYGEQAVAGTVYLSSTDHGLTWKRVNRPKEMPFADCQSPVSKEYIRLVDMGAMGVYCIRTSGGLTGGRTLTKVADRNSIMIKPPVFIRNGKRIVVAAHGGVTPKGCYTYFSDDDGLTWKCSNTVTSPDHQGGGFHKGIRWNHGAVEPTVVELKDGTLWMLMRTSQDFHYQAFSKDGGQTWGESEPSPFYGTITMPTLGRLADGRLLLFWCNTTPLPEKEGTDGVWDDVFTNRDVTHVAVSDDDGKTWKGFRELYMDPMRNDIDYAVHGGGIDRGVHQAQFVEVAPGKVLASIGQHPLHRAMMMFDVNWLYEKSRFNDFTDSLSQWSTFNYMNGIKGHCAYNRIQGCMLEPHPRKEGRQVLHLTYRPDASLVADTRGAVWNFPAMKKGTFTVSLRIPEGSHSVSLLLNDRWMNPSDTVARYQSMYELPLTRKQLGVKDDRWHEVSLEWDLLQKRPQARVWVDGRLRPLRLPLKNKSQNGISYVHFIAPPAEANPGVYLEWVRAEADGAI” was “failed”; that for “MKRSIEDTPIVLIGAGNLATNLAKALYRKGFRIVQVYSRTEESARELAQKVEAEYTTDLAEVNPYAKLYIVSLKDSAFAELLQGIVEGKREEALMVHTAGSIPMNVWEGHVPHYGVFYPMQTFSKQREVDFKEIPFFIEASSTEDAAFLKAIASTLSNRVYDADSEQRKSLHLAAVFTCNFTNHMYALAAELLKKYNLPFDVMLPLIDETARKVHELEPKTAQTGPAIRYDENVIGNHLRMLADDPAMQRLYELLSRSIHERQ” was “not failed”.
Take “MKRTIFLLMSILLLLTACGDGHKQTSSDKEQSEHKDNHNKNQVKQIATDKKVQGDNYRTILPFKESQARGLLQDNMANGYNGEDFESGLLELSKEIFPTNKYLYQDGQYLDKKTINAYLDPKYTKKEIDKMSEKEKKSKNANENLGLNPSHNGETDEEKIAKNSPAYLSNILEQDFYGNSDSKGKNIKGMTIGLAMNSVYYYKKEKDGETFSKDLSDKEIEKQGKQMASEMLSRLRENSDLKDIPIHFAIYKQSSQDSITPGEFIVGTTVEEGKTKINSWDNINEKAALIPSSTAADYDETLNNNFKQFNDNLQSYFSNFTQAVGKVKFVNKKAKQLTVDLPIDYYGQAETIGITQYVTEQAEKYFDKLDEYEIRIKDGNTPRALISKTKDDKEPQVHIYHN”: the protein production entry is on record as “failed”.
The value for “MKRTLLAISIFAITCNASASSSPDAVSSMSDRYSTLANLEMNGGFPTETSQKILQNESYFQRASMLYQWALPIVNMKAMQEGHAELMNGTAYNKIAIYQDRLKPNSLITTPNSDVIYAMGWLDMKETGPLIIEHPAGLQSLMDDMYHHPLRGPLDKNQPGGQYLGDIGNAGPDKGKAAKFLILPPNKKREDYAQLADKYFIYESNTSEVFLFLRSFFKDMNNLEPAVNRVKEIKVYPLNGSAESMEFFNVSDVPSKSIWDNDYRFYETLNRAVQNMELATFDPYMNGVMAAIGISKGVEFTPTEKQKEMLTKAAQTGWKISKEIALNFDEKSSKTTGDTWFWKEAPSWVAHALTDKGNQYHALSDPYYHNIKTGYTNVDAITHMYTNHYSMSSGMINAKIGAGAKYAGAYKDKDLNPLIGSCNYSLHIPADVPASLFWSVTAYDAATAAGVNVENHQWPSLGDRDNPIKNSDDSVTLFFGPTAPENAQLAKNNWLQFDNDSWFSLIRFYGPQQSLFDGSWVPGEFEKINCVK” was “failed”; that for “MKRTVALAASLSLLWLLLSGYWHDPLLLGFGLLSVGAVVALSLRMGIVDAEGVPLRQIPGLITYLPWLAWQVVLSAITVARIVLSPKLSISPTLAAIPAAPKTAIGQVILANSITLTPGTLSLDLDDGAVLVHGLCAAGIDDLMTGEMGRRVAALDGRGAP” was “failed”; that for “MKRVAIFASGSGTNAEAIIQSQKAGQLPCEVALLITDKPGAKVVERVKVHEIPVCALDPKTYPSKEAYEIEVVQQLKEKQIDFVVLAGYMRLVGPTLLGAYEGRIVNIHPSLLPAFPGLHAIEQAIRANVKVTGVTIHYVDEGMDTGPIIAQEAVSIEEEDTLETLTTKIQAVEHRLYPATLHKLLSK” was “not failed”.
“MKRWGLIFPTLYFFFLFIMIFVFNFPREVTRQWMWIQVGGIVFMIALGLYFDGYASLKEVITIGAFTLLWLGLSFTVNIRKEYFTLLGLIIELVLDLALREGG”: the protein production entry is recorded as “failed”.
Take “MKSARPRLSDAHGRRNCARRGRRPGHQPFWRLAMNIVRYPQFSTHALQNEIKHVFDRFFEHNSDTDESAVVTAQWVPRVDIKEEPKHFVLYADLPGIDPSQIEVQMDKGILSIKGERKSESSTETERFSRIERRYGSFHRRFALPDSADADGITASGHNGVLEIRIPKRPAATPRRIHVGNGQDTSDSTVQ”: the protein production entry is on record as “failed”.
The value for “MKSAVEQLSTYKSVHLNPRNIQTHFIGIPLIIWSAFLLFATIRIPLGDADNVNLGMILAIGIMLYYLRLHAKLALGLALFLAPVIYTTELVAHSENAFGLAITVFIVGWIFQLIGHRYEKAKPAFVDDLNQLLIGPFFLMAEVYFMLGLEKQLNAEITPIAIEKRRALEAHLKTK” was “failed”; that for “MKSAYIFFNPKSGKDEQALAKEVKSYLIEHDFQDDYVRIITPSSVEEAVALAKKASEDHIDLVIPLGGDGTINKICGGVYAGGAYPTIGLVPAGTVNNFSKALNIPQERNLALENLLNGHVKSVDICKVNDDY” was “failed”.
Regarding “MKSILDGLADTTFRTITTDLLYVGSNDIQYEDIKGDMASKLGYFPQKFPLTSFRGSPFQEKMTAGDNPQLVPADQVNITEFYNKSLSSFKENEENIQCGENFMDIECFMVLNPSQQLAIAVLSLTLGTFTVLENLLVLCVILHSRSLRCRPSYHFIGSLAVADLLGSVIFVYSFIDFHVFHRKDSRNVFLFKLGGVTASFTASVGSLFLTAIDRYISIHRPLAYKRIVTRPKAVVAFCLMWTIAIVIAVLPLLGWNCEKLQSVCSDIFPHIDETYLMFWIGVTSVLLLFIVYAYMYILWKAHSHAVRMIQRGTQKSIIIHTSEDGKVQVTRPDQARMDIRLAKTLVLILVVLIICWGPLLAIMVYDVFGKMNKLIKTVFAFCSMLCLLNSTVNPIIYALRSKDLRHAFRSMFPSCEGTAQPLDNSMGDSDCLHKHANNAASVHRAAESCIKSTVKIAKVTMSVSTDTSAEAL”, the protein production entry was “not failed”.
As for “MKSILEQLSSITVVVADTGDLDAIKKFQPRDATTNPSLILAAAKNPDYIKLIDQALESSRKSLPAGFSESELIKETIDQVSVFFGKEILNLISGRVSTEVDARLSFDTEATVTKARKLINHYKSFGINKERILIKIASTWEGIKAAEILEKEGIKCNLTLLFNFCQAVACANAKITLISPFVGRILDWHKAKTGKDNFAGCEDPGVISVTKIYNYFKEKGFKTEVMGASFRNIDEIKELAGCDLLTIAPKFLDELNREEGELIKKLDEDTQSQSSIDYKFDEKDFRLSMLEDQMASEKLSEGITGFSKAIEELEELLLKRLSEINNQKLISTT”, the protein production result was “failed”.
Take “MKSKFLTMKLILGALVLSFSCACSSSNSEEAMPQTAIGRQLVESGMANDVTLDNESVVRDGIKLNELAFKTFGESQHIFVATIDLNELTFTPATKDDKNVPATGPESSAPLPIHAFAAEANGKTVWLGVNGDYYADNPRRVMGLFYKDGVCINSQYFEGHDEVLYQLKNGETYVGQADEALAHEANLLHALGGYGLLVKDGVVQNFYEEMGDLQNTHPRTSVGLSQDRKTMYVFVVDGRRKDSFFALGLTLPHLATMMKAVGCYNAINLDGGGSTTLIIRKVNDGGKPTFPILNTPADDRVPRKVTNSMLIIEKK”: the protein production entry is reported as “failed”.
Turning to “MKSKNQFFVSLLLKSTLVFSSFLMFADISRGQATVSISQQKILAQALTNQEREELTRLRAEKGERAQIQADFEQAFSRTTVLLNIWLVILSLFPVAIIALFWLLRRVAIREIVNRAMSQFEGIEKLETQLIIVKQDAENLIQDAKSINRLLEREIESLQQKIKIEQENLSVVTSELLQAKTDNLAQITTEIANFQSKLESLVGEFAHRLTQSDSDTKKQRDITLENIIKIESLLEVQLTELQKEAERHQKAVLGNIDTAGVDFNNYLINLQAEAQKNKNSVFEDFSHFQAELQGDLQQQKDIQLGNIQEVANIFNNQVSELQLEAQKQKDSLDNNLNKLHTDAQIRKDKIIHRLEELKDLFQAQVAELQIQTQQELASYLSELKIDTGNSKEKIIEELEKSGSEFVSQFSELQHNAQQQKLLILQKLEKLETDFVNQLSELQLDAQRRKDVILQELAENQPPVVVEAQPIHKDQLEVLVNENEQPQLSFDECIEQGDSLFSQKSYEEAITCYEQAVKIQQDNAVAWFKHGLTLARLKRFKDAIKSYHQAIKIKPDYHQAWCDLGVAFGNIRRHQEAFAAFDKATQVKPDDAVVWLNRGLALIELEEYEEAIASFDQALELQPNSPKIWDKRGYSLVRLGRDDEAITSFNQALEIKPEYASAYYNKAACYAMQGDVNSSLENLQQAIILNPKYKEDAATDIDFDEIAGDEKFKQLIATIGIRFDF”, the protein production entry was “failed”.

The record behind these values is a protein production outcome set (Wang et al. 2014).
